According to article PMC13181761, “New Analogs of the Compstatin Family of Clinical Complement Inhibitors with Low Picomolar Target Affinity” (Journal of Medicinal Chemistry, 2026):
Bridges are numbered along the chain shown (N, C = ends). Where no end group is shown, it is not given here. [ ]: non-standard residue; d: D form. Trp(1-Me) = Cn1cc(C[C@H](N)C(=O)O)c2ccccc21; Nva(3-Et) = CCC(CC)[C@H](N)C(=O)O; Asu = N[C@@H](CCCCCC(=O)O)C(=O)O; NMeI = CC[C@H](C)[C@H](NC)C(=O)O; Sar = CNCC(=O)O

What was measured:
[1] = molecular target: T1, human C3b (human, UniProt P01024 749-1663); test: SPR; Biacore T200; human C3b amine-coupled; single-cycle kinetics, 5 increasing concentrations (0.5-40 nM), final dissociation 100-240 min; 25 °C, HBST pH 7.4; global Langmuir 1:1 fit; mean of 3 experiments; details: both partners purified
T1 construct: Complement C3 beta chain, human; cut product of the C3 precursor; C3b alpha chain (C3 alpha chain after release of C3a), human; Two-chain fragment of C3; amine-coupled to the chip in SPR, free in the cryo-EM sample; also called hC3b; plasma-purified C3b; source: bought: Complement Technology (plasma-purified)

[2] = molecular target: T1, human C3b; test: SPR; Biacore T200; human C3b amine-coupled; multicycle kinetics, serial 2-fold dilutions of peptide, 120 s injection, 180 s dissociation, regeneration 1 M NaCl; 25 °C, HBST pH 7.4; Langmuir 1:1 fit, KD = kd/ka; mean of 3 experiments; details: both partners purified

Kd [2] | Binder | also measured
103 nM | ICXWQDWGAHRCT (α-tert-butyl-glycine (Tbg) at position 3; acetyl at position 0; cyclic (cyclized by H2O2)) [Cp01 Val3Tbg analog] | –
> 16000 nM | ICVWQDXGAHRCT ((3-benzothienyl)alanine (Bta) at position 7; acetyl at position 0; cyclic (cyclized by H2O2)) [Cp01 W7Bta analog] | –

The next lines start with the binder.

Binder | Kd [2] | also measured
[dY]IC[Nva(3-Et)][Trp(1-Me)]QDW[Sar]AHRC[NMeI] (disulfide 3-13 (inferred)) [Cp40 Dea3 analog] | – | Kd [1]: 13.6 nM; koff [1]: 0.006 s⁻¹; kon [1]: 430000 M⁻¹ s⁻¹
Ac-ICVWQDW[dA]AHRCT (disulfide 2-12 (inferred)) [Cp01 Gly8D-Ala analog] | > 16000 nM | –
Ac-ICVWQ[Asu]WGAHRCT (disulfide 2-12 (inferred)) [Cp01 Asp6Asu analog] | 2080 nM | koff [2]: 0.23 s⁻¹; kon [2]: 120000 M⁻¹ s⁻¹
ICXWQDWGAHRCT (not fully specified; norvaline (Nva) at position 3; acetyl at position 0; cyclic (cyclized by H2O2)) [Cp01 Val3Nva analog] | 1660 nM | –
